In US20150337046A1 (Kyowa Kirin, published 2015):

Experiments:
[1] = molecular target: T1, soluble FLAG-tagged recombinant hLIGHT (native, untreated) (human, UniProt O43557 66-240); experiment: dot blot: serial dilutions of native soluble hLIGHT on PVDF, probed with 5 µg/ml antibody, chemiluminescence
T1 construct: N-terminal FLAG tag followed by hLIGHT extracellular region Gly66 to Val240; also called soluble hLIGHT; FLAG-hLIGHT
T1 chain: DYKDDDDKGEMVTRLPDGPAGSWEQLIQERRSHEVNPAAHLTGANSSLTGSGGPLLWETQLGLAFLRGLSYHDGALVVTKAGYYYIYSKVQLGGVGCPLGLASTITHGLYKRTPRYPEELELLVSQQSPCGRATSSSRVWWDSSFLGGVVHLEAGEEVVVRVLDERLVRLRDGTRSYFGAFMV

[2] = molecular target: T2, hLIGHT SNP variant 214E-32L, cell surface-expressed on EL4 cells (human, UniProt O43557 1-240); experiment: flow cytometry dose titration on EL4 cells expressing the SNP variant
T2 construct: also called cytoplasmic SNP
T2 chain: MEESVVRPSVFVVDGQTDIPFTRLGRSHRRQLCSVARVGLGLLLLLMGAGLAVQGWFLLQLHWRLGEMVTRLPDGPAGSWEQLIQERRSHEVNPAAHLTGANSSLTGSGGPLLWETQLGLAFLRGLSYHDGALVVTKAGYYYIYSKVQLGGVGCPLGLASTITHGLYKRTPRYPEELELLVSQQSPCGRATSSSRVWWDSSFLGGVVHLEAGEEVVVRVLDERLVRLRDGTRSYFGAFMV

[3] = molecular target: T3, hLIGHT SNP variant 214E-32S, cell surface-expressed on EL4 cells (human, UniProt O43557 1-240); experiment: as above
[4] = molecular target: T4, hLIGHT SNP variant 214K-32S, cell surface-expressed on EL4 cells (human, UniProt O43557 1-240); experiment: flow cytometry dose titration on EL4 cells expressing 214K-32S
[5] = molecular target: T5, human LIGHT (hLIGHT), cell surface-expressed, full length (human, UniProt O43557 1-240); experiment: flow cytometry on HEK 293-hLIGHT cells
T5 construct: also called native hLIGHT on the cell surface; EL4-hLIGHT

[6] = molecular target: T3, hLIGHT SNP variant 214E-32S, cell …; experiment: flow cytometry at 10 µg/ml antibody on EL4 SNP cell lines
[7] = molecular target: T4, hLIGHT SNP variant 214K-32S, cell …; experiment: flow cytometry at one antibody concentration on EL4 SNP 214K cell line
[8] = molecular target: T5, human LIGHT (hLIGHT), cell …; experiment: flow cytometry on hLIGHT-transfected cells

B1: E1 antibody (produced by hybridoma 124 E1, ATCC Accession No. PTA-7729) (antibody, V domains shown)
VH: EVQLVESGGGLVQPGGSLRLSCAASGFTFSRFNMNWVRQAPGKGLEWVSYISSSSYTIYYADSVKGRFTISRDNAKNSLDLQMNSLRDEDTAVYYCARSIAAAFDYWGQGALVTVSS
VL: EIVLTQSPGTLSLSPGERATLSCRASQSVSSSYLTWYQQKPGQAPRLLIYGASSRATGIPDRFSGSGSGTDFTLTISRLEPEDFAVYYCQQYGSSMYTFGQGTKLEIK
notes: Fully human IgG1 purified from hybridoma culture
In the case of B1, the “lowest limit of detection” value [1] is reported as 23 ng.

B2: recombinant single kappa chain antibody of E1 heavy chain paired with Elkappa(B) (antibody, V domains shown)
VH: EVQLVESGGGLVQPGGSLRLSCAASGFTFSRFNMNWVRQAPGKGLEWVSYISSSSYTIYYADSVKGRFTISRDNAKNSLDLQMNSLRDEDTAVYYCARSIAAAFDYWGQGALVTVSS
VL: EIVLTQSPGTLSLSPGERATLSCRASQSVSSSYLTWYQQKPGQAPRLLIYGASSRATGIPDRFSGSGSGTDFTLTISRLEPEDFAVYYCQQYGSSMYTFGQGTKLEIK
notes: also called E1kappa(B); 124Elkappa(B)
B2: binds [2]; binds [3]; no binding [4]. B2: binds [5].

B3: F23 antibody (produced by hybridoma 124 F23, ATCC Accession No. PTA-7728) (antibody, V domains shown)
VH: QVQLQQWGAGLLKPSETLSLTCAVYGGSFSGYYWNWIRQPPGKGLEWIGEINQYNPSLKSRVTISVDTSKNQFSLKLSSVTAADTAVYYCAREIATADKGYYGLDVWGQGTTVTVSS
VL: AIQLTQSPSSLSASVGDRVTITCRASQGISSALAWYQQKPGKAPKLLIYDASSLESGVPSRFSGSGSGTDFTLTISSLQPEDFATYYCQQFNSYPLTFGGGTKVEIK
notes: Residue ranges without leader are those stated in claim 28 (CLM-00028)
For B3, the “lowest limit of detection” value [1] was 23 ng.

B4: E63 antibody (produced by hybridoma 124 E63, ATCC Accession No. PTA-7818) (antibody, V domains shown)
VH: QVQLQESGPGLVKPSETLSLTCIVSGGSVSSGGYYWSWIRQPPGKGLEWIGYIYYSGSTNYNPSLKSRVTISVDTSKNQFSLKLSSVTAADTAVYYCARWITMFRGVGFDPWGQGTLVTVSS
VL: EIVLTQSPDFQSVTPKEKVTITCRASQSIGSSLHWYQQKPDQSPKLLIKYASQSFSGVPSRFSGSGSGTDFTLTINSLEAEDAAAYYCHQSSSLPLTFGGGTKVEIK
notes: a recombinant IgG1 version (E63G1) was also made
With B4 the binding result [6] was “binds”, the binding result [7] was “no binding (tested: 10 µg/ml)” and the “lowest limit of detection” value [1] was 3.9 ng. B4: binds [8].
